One molecule from patent US20150344571A1 (KANGWON NATIONAL UNIVERSITY UNIVERSITY INDUSTRY COOPERATION …, published 2015) can be followed below.

In assay [1] the target is T1, mouse L1CAM (purified extracellular domain with S1 tag) (mouse, UniProt P11627 20-1123).
T1 construct: extracellular domain; also called mouse L1CAM monomer; not shown: S1 tag from the pJEX2T vector
The experiment in a line: not stated there (summary of the filing's affinity measurements).

Assay [2] addresses T2, human L1CAM (purified extracellular domain) (human, UniProt P32004 20-1112).
T2 construct: range 1-1112; Expressed in HEK293T from pJK-dhfr2-L1-monomer; The stated range 1-1112 begins at residue 1 of the precursor; no signal peptide limits are stated; also called human L1CAM antigen
The experiment in a line: competitive ELISA (soluble human L1CAM against coated human L1CAM). As to the method:
(§1) The affinities of the purified antibodies for human L1CAM were measured by competitive ELISA. Human L1CAM was prepared at a density of 1×10⁻⁶ M and serially diluted to 1×10⁻¹¹ M using a PBS buffer solution. Respective antibodies were prepared by diluting them in PBS buffer solution at particular concentrations according to their binding capacity. The antigens and antibodies thus diluted were reacted with each other at the same volume ratio, and allowed to react at room temperature for 2 hours.
(§2) 96-well plates (MaxiSorp, Nunc) were coated using the purified human L1CAM which were diluted in a buffer solution (15 mM Na₂CO₃, 34.84 mM NaHCO₃, pH 9.6) at a concentration of 100 ng/well, at 4° C. overnight. Next day, the wells were washed with 0.05% PBS-T buffer solution twice. Difco skim milk (BD) was dissolved in 0.05% PBS-T buffer solution at a concentration of 2%, and 200 μl thereof was added to each well, followed by incubation at room temperature for 1 hour. Then, the wells were washed with 0.05% PBS-T buffer solution twice. To the plate, 100 it of the antigen/antibody reactant that were reacted for 2 hours was added and allowed to react at room temperature for 1 hour. Then, the wells were washed with 0.05% PBS-T buffer solution three times to remove non-antigen bound antibodies. Goat anti-human IgG(Fc)-HRP (Pierce, 1/5000) that specifically recognizes the Fc region of human antibody was added as a secondary antibody, and allowed to react at room temperature for 1 hour. Then, the wells were washed with 0.05% PBS-T buffer solution four times to remove the remaining secondary antibodies. […] Then, 50 μl of 2.5 M H₂SO₄ solution was added to each well to terminate the enzymatic reaction. After terminating the reaction, absorbance was measured at 450 nm (VERSAmax microplate reader, Molecular Devices).

The target in assay [3] is T2, human L1CAM (purified extracellular …). Put plainly: Octet RED (called SPR in the filing), antibody on AHC sensor, soluble human L1CAM. As to the method: (§3) In addition to the competitive ELISA, SPR (surface […] resonance) was measured using Octet RED (ForteBio, USA) according to the manufacturer's protocol to determine the affinities of Ab417 antibody and Ab4M antibody for human and mouse L1CAM. […] AHC (anti-human IgG Fc capture) sensor chip was used to analyze binding kinetics of the antibodies to antigens by examining changes in refractive index which occurs upon association and dissociation of antibody and antigen while transferring the sensor chip to PBS solution, antibody, PBS solution, antigen, and PBS solution in this order.

Assay [4] has the same target. The experiment in a line: Octet RED. As to the method: as §3
For assay [5] the target is unchanged. The experiment in a line: not stated there (summary of the filing's affinity measurements); rounded summary value, no assay named.
Assay [6] shares this target. Put plainly: Octet RED, antibody on AHC sensor, soluble human L1CAM. As to the method:
(§4) Affinities of Ab417, Ab417-H6L2 mutant, and Ab417-H6L6 mutant for human and mouse L1CAM were examined using Octet RED (fortebio). […] Each 200 it thereof was added to opaque 96-well plate to prevent light transmission. AHC (anti-human IgG Fc capture) sensor chip was used to analyze binding kinetics of the antibodies to antigens by examining changes in refractive index which occurs upon association and dissociation of antibody and antigen while transferring the sensor chip to PBS solution, antibody, PBS solution, antigen, and PBS solution in this order.
(§5) Despite amino acid substitution, there were no changes in the affinities of these antibodies (Table 4), and there were also no changes in the affinities of these antibodies for mouse L1CAM (Table 5).
(In general: Biolayer interferometry detects binding as a change in optical thickness at a sensor tip.)

For assay [7] the target is unchanged. The experiment in a line: competitive ELISA. As to the method:
as §1, §2
Affinity of the purified Ab417 antibody for human L1CAM was measured by competitive ELISA in the same manner as in Example 3-2.
In general terms: ELISA stands for enzyme-linked immunosorbent assay.

Assay [8] addresses T1, mouse L1CAM (purified extracellular …). Put plainly: Octet RED, antibody on AHC sensor, soluble mouse L1CAM. As to the method:
as §4, §5

Assay [9] has the same target. The experiment in a line: Octet RED (called SPR in the filing), antibody on AHC sensor, soluble mouse L1CAM. As to the method: as §3
The target is the same in assay [10]. The experiment in a line: competitive ELISA with mouse L1CAM.

T1 sequence (P11627 20-1123): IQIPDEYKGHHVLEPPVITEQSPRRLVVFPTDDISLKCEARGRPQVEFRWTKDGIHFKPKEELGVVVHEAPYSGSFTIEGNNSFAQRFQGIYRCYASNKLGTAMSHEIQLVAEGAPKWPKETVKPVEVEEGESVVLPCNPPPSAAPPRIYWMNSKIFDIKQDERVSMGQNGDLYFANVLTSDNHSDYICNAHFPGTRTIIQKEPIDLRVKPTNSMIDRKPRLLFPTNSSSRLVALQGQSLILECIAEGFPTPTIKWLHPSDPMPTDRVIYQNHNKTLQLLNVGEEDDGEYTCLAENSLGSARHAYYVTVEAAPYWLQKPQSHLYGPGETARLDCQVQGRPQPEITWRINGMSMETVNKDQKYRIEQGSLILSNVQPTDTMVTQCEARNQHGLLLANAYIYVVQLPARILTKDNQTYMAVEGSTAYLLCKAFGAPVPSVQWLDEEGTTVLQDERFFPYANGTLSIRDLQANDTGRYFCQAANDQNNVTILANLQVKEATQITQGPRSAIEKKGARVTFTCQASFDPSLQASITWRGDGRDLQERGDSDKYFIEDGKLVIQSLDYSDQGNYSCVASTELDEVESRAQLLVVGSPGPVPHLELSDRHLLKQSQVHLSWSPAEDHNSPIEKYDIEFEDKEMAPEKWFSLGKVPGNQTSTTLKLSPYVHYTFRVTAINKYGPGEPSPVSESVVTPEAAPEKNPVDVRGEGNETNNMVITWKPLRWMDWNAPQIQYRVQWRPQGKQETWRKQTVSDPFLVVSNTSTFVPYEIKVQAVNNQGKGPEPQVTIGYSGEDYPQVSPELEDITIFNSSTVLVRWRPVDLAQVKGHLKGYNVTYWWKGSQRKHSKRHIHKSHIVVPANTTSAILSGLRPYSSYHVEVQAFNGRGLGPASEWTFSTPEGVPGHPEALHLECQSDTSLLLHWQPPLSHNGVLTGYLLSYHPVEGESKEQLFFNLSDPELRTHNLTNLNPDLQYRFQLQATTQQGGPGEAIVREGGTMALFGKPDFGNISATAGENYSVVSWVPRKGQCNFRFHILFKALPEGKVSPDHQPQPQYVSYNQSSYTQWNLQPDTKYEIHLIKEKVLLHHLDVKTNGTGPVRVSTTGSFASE
T2 sequence (P32004 20-1112 limits assumed, form in doubt): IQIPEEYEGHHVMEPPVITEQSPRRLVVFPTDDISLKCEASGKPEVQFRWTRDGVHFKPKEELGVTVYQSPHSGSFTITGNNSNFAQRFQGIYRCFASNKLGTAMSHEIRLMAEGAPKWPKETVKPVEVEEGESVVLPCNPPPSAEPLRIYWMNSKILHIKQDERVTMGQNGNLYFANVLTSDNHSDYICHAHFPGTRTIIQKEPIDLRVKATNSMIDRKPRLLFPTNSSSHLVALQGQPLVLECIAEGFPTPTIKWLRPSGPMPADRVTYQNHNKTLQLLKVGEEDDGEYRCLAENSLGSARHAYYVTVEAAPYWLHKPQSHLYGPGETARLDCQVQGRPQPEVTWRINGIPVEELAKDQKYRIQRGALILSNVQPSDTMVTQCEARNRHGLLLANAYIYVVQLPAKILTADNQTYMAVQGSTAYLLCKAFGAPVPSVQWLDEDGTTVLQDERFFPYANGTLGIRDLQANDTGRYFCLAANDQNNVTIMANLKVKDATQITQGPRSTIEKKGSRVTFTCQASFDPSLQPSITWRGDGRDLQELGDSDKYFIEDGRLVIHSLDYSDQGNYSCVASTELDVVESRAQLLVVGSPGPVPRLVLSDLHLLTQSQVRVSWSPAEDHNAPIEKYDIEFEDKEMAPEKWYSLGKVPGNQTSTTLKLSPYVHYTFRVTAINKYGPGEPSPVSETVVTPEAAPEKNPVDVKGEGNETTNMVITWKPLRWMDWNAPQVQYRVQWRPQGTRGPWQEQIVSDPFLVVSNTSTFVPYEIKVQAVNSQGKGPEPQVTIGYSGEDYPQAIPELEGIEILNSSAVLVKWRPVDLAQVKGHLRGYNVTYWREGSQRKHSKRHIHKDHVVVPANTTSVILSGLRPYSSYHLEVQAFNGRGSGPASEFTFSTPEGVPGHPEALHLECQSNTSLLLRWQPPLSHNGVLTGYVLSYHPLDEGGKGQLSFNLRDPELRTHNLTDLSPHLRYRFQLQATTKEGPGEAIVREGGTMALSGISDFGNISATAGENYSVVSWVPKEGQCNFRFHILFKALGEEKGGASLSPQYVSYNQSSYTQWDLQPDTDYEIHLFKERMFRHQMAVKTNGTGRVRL

B1: Ab417 antibody (antibody, V domains shown)
VH: EVQLVESGGGVVQPGRSLRLSCAASGFTFSRFGMHWVRQAPGKGLEWVAFISNDGSNKYYADSVKGRFTISRDNSKNTLYLQMNSLRPEDTAVYYCARGRAYGSGSLFDPWGQGTLVTVSS
VL: DIQLTQSPSSLSASVGDRVTITCRASRTISIYVNWYRQRPGKAPESLIYAASNLHSGVPSRFSGSGSGTDFTLTISSLQPEDFATYYCQQSIGRGVVTFGQGTKLEIK
notes: Whole IgG expressed from pdCMV-dhfrC-Ab417; also called IgG form of Ab4M-18 (codon-optimised)
Take B1: the Kd (as a rule, the equilibrium constant for the complex coming apart) in [1] was 0.1 nM; in assay [2], 1.2 nM; in assay [3], 0.18 nM; in [5] it was 0.2 nM; in [6], 0.239 nM; in assay [8], 0.108 nM. Moreover, the Kd in [9] came out at 0.0348 nM; in [10], 0.21 nM. Moreover, the off-rate (koff) – broadly, a measure of how fast the partners let go of each other – in [3] was found to be 2.33e-05 s⁻¹; in assay [6], 4.51e-05 s⁻¹; in [8], 2.64e-05 s⁻¹; in assay [9], 8.1e-06 s⁻¹. Also, the kon (usually the second-order rate constant of association) in [3] was found to be 127000 M⁻¹ s⁻¹; in assay [6], 189000 M⁻¹ s⁻¹; in assay [8], 244000 M⁻¹ s⁻¹; in [9], 233000 M⁻¹ s⁻¹. Moreover, the “fold higher affinity than Ab4M” value in assay [4] was around 2 fold; in [7] it was around 2.4 fold. Besides, the “fold higher affinity than Ab4” value is around 92 fold in assay [7] and around 8 fold in assay [10].
